Measurements: US20120052070A1 (Novartis, published 2012)

T1: recombinant human DKK1 (human, UniProt O94907 32-266)
T1 sequence: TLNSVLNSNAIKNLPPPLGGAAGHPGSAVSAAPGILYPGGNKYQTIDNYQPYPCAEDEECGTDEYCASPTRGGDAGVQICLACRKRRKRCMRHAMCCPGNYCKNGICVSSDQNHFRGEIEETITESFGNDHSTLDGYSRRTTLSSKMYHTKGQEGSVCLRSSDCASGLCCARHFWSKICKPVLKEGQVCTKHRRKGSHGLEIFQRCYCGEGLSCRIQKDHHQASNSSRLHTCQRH

B1: anti-DKK1 FAb MOR04910 (Fab, V domains shown)
VH: QVQLVESGGGLVQPGGSLRLSCAASGFTFSSYWMSWVRQAPGKGLEWVSGISYSGSNTHYADSVKGRFTISRDNSKNTLYLQMNSLRAEDTAVYYCARMGIDLDYWGQGTLVTVSS
VL: DIALTQPASVSGSPGQSITISCTGTSSDVGGFNYVSWYQQHPGKAPKLMIHDGSNRPSGVSNRFSGSKSGNTASLTISGLQAEDEADYYCQSWDVSPITAVFGGGTKLTVLG
B2: anti-DKK1/4 antibody (antibody, V domains shown)
VH: B1 VH
VL: B1 VL

Target: T1, recombinant human DKK1
Assay: cell-based or functional assay

Binder	EC50, reactivation of DKK1 inhibited wnt signaling	apparent EC50, TCF/LEF luciferase reporter (SuperTopflash, Kremen) with 10 ng/ml rhDKK1 and Wnt3a conditioned medium
B1	< 1 nM	–
B2	–	0.16 nM
